Experimental data reported in the supplement of paper PMC9112550, “Optimization of the antimicrobial peptide Bac7 by deep mutational scanning” (BMC Biology, 2022).

Tested on: Escherichia coli TOP10
Experiment: shrunken log2 fold change of peptide-encoding DNA abundance (4.5 h post-induction vs induction); higher = less antimicrobial activity (less host growth inhibition)
Conditions: time post-induction: 4.5 h; library: site-saturation at positions 5, 18, 19, 20
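Also: peptides expressed intracellularly from a pBAD plasmid library in pooled LB shake-flask culture, induced with 0.3% L-arabinose, DNA abundance read by NGS, three biological replicates, DESeq2 with apeglm shrinkage.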

Row | Sequence | shrunken log2 fold change
1 | RRIRSRPPRLPRPRPRPGDDPRP | 0.0869
2 | RRIRLRPPRLPRPRPRPHRDPRP | -0.0661
3 | RRIRVRPPRLPRPRPRPVRTPRP | 0.103
4 | RRIRVRPPRLPRPRPRPWVPPRP | -0.101
5 | RRIRDRPPRLPRPRPRPKRGPRP | 0.0777
6 | RRIRKRPPRLPRPRPRPPHHPRP | 0.322
7 | RRIRDRPPRLPRPRPRPSPLPRP | -0.126
8 | RRIRGRPPRLPRPRPRPADPPRP | 0.585
9 | RRIRYRPPRLPRPRPRPTQTPRP | 0.0249
10 | RRIRNRPPRLPRPRPRPANFPRP | -0.193
11 | RRIRCRPPRLPRPRPRPHYGPRP | -0.189
12 | RRIRQRPPRLPRPRPRPMPHPRP | -0.0205
13 | RRIRPRPPRLPRPRPRPLGKPRP | -0.361
14 | RRIRCRPPRLPRPRPRPSKWPRP | -0.0391
15 | RRIRCRPPRLPRPRPRPMIEPRP | -0.117
16 | RRIRQRPPRLPRPRPRPELRPRP | -0.043
17 | RRIRGRPPRLPRPRPRPDWWPRP | 0.937
18 | RRIRMRPPRLPRPRPRPPTIPRP | 0.301
19 | RRIRERPPRLPRPRPRPEYSPRP | -0.422
20 | RRIRARPPRLPRPRPRPWVRPRP | -0.323
21 | RRIRQRPPRLPRPRPRPRHVPRP | -0.14
22 | RRIRYRPPRLPRPRPRPALRPRP | -0.0531
23 | RRIRHRPPRLPRPRPRPYWMPRP | -1.63
24 | RRIRPRPPRLPRPRPRPLGCPRP | 0.376
25 | RRIRMRPPRLPRPRPRPFDRPRP | 0.00911

Row | Sequence | shrunken log2 fold change
26 | RRIRQRPPRLPRPRPRPPKYPRP | -0.313
27 | RRIRNRPPRLPRPRPRPELRPRP | 0.0572
28 | RRIRLRPPRLPRPRPRPTGAPRP | -0.211
29 | RRIRFRPPRLPRPRPRPRPTPRP | 0.732
30 | RRIRLRPPRLPRPRPRPTVNPRP | -0.119
31 | RRIRHRPPRLPRPRPRPWWAPRP | -0.162
32 | RRIRNRPPRLPRPRPRPCSVPRP | 0.0192
33 | RRIRYRPPRLPRPRPRPIHLPRP | -1.26
34 | RRIRIRPPRLPRPRPRPLVVPRP | -0.25
35 | RRIRMRPPRLPRPRPRPWGNPRP | -0.00136
36 | RRIRCRPPRLPRPRPRPKWMPRP | 0.361
37 | RRIRVRPPRLPRPRPRPMHVPRP | 0.0592
38 | RRIRTRPPRLPRPRPRPWNPPRP | 0.0296
39 | RRIRERPPRLPRPRPRPNRCPRP | -0.00988
40 | RRIRSRPPRLPRPRPRPDICPRP | -0.0721
41 | RRIRRRPPRLPRPRPRPCIHPRP | -0.402
42 | RRIRRRPPRLPRPRPRPQPWPRP | 0.067
43 | RRIRGRPPRLPRPRPRPWTFPRP | -0.00633
44 | RRIRPRPPRLPRPRPRPEFKPRP | 0.26
45 | RRIRKRPPRLPRPRPRPYWKPRP | 0.0282
46 | RRIRTRPPRLPRPRPRPTAGPRP | 0.59
47 | RRIRYRPPRLPRPRPRPAVYPRP | -0.0166
48 | RRIRFRPPRLPRPRPRPRTSPRP | 0.223
49 | RRIRCRPPRLPRPRPRPHPEPRP | -0.168
50 | RRIRFRPPRLPRPRPRPGWLPRP | 0.129

Row | Sequence | shrunken log2 fold change
51 | RRIRERPPRLPRPRPRPKRLPRP | 0.0323
52 | RRIRARPPRLPRPRPRPDTYPRP | -0.11
53 | RRIRARPPRLPRPRPRPQKKPRP | -0.0278
54 | RRIRWRPPRLPRPRPRPRNKPRP | 0.0794
55 | RRIRDRPPRLPRPRPRPQCIPRP | -0.0275
56 | RRIRNRPPRLPRPRPRPDQMPRP | 0.0898
57 | RRIRFRPPRLPRPRPRPGQLPRP | -0.0429
58 | RRIRTRPPRLPRPRPRPNDDPRP | -0.519
59 | RRIRRRPPRLPRPRPRPIPNPRP | 0.349
60 | RRIRARPPRLPRPRPRPYLQPRP | -0.276
61 | RRIRWRPPRLPRPRPRPLAEPRP | 1.13
62 | RRIRTRPPRLPRPRPRPWDTPRP | -0.15
63 | RRIRDRPPRLPRPRPRPQVEPRP | 0.0699
64 | RRIRARPPRLPRPRPRPALFPRP | 0.61
65 | RRIRCRPPRLPRPRPRPNTIPRP | -0.553
66 | RRIRKRPPRLPRPRPRPWDVPRP | 0.0155
67 | RRIRPRPPRLPRPRPRPCREPRP | -0.075
68 | RRIRIRPPRLPRPRPRPSEVPRP | 0.0174
69 | RRIRYRPPRLPRPRPRPTVEPRP | 0.0629
70 | RRIRYRPPRLPRPRPRPHAWPRP | -0.129
71 | RRIRCRPPRLPRPRPRPPKAPRP | -0.112
72 | RRIRCRPPRLPRPRPRPAAIPRP | 0.0247
73 | RRIRVRPPRLPRPRPRPFLTPRP | -0.0925
74 | RRIRKRPPRLPRPRPRPRCNPRP | 0.196
75 | RRIRLRPPRLPRPRPRPLPMPRP | 0.0573

Row | Sequence | shrunken log2 fold change
76 | RRIRMRPPRLPRPRPRPQNHPRP | -0.337
77 | RRIRSRPPRLPRPRPRPVTHPRP | -0.152
78 | RRIRERPPRLPRPRPRPNCLPRP | -0.297
79 | RRIRKRPPRLPRPRPRPGRLPRP | 0.299
80 | RRIRARPPRLPRPRPRPETVPRP | 0.312
81 | RRIRIRPPRLPRPRPRPQEAPRP | 0.0332
82 | RRIRTRPPRLPRPRPRPVYIPRP | -0.6
83 | RRIRQRPPRLPRPRPRPTACPRP | 0.0488
84 | RRIRCRPPRLPRPRPRPNDQPRP | 0.0359
85 | RRIRRRPPRLPRPRPRPEARPRP | 0.172
86 | RRIRIRPPRLPRPRPRPGSAPRP | 0.267
87 | RRIRCRPPRLPRPRPRPMHPPRP | -0.00769
88 | RRIRYRPPRLPRPRPRPYVPPRP | -0.77
89 | RRIRPRPPRLPRPRPRPYDCPRP | -0.021
90 | RRIRVRPPRLPRPRPRPPQVPRP | 0.377
91 | RRIRFRPPRLPRPRPRPSHHPRP | -0.534
92 | RRIRNRPPRLPRPRPRPICVPRP | 0.111
93 | RRIRLRPPRLPRPRPRPDQYPRP | -0.014
94 | RRIRMRPPRLPRPRPRPWVIPRP | 0.0191
95 | RRIRIRPPRLPRPRPRPWILPRP | -0.349
96 | RRIRHRPPRLPRPRPRPVATPRP | -0.079
97 | RRIRRRPPRLPRPRPRPDYVPRP | 0.0255
98 | RRIRHRPPRLPRPRPRPGYIPRP | -0.176
99 | RRIRVRPPRLPRPRPRPATFPRP | -0.387
100 | RRIRHRPPRLPRPRPRPWLKPRP | -0.185

Row | Sequence | shrunken log2 fold change
101 | RRIRQRPPRLPRPRPRPCLNPRP | -0.632
102 | RRIRSRPPRLPRPRPRPIYAPRP | 0.0432
103 | RRIRARPPRLPRPRPRPTMGPRP | 0.469
104 | RRIRERPPRLPRPRPRPRTDPRP | 0.193
105 | RRIRTRPPRLPRPRPRPYPMPRP | -1.43
106 | RRIRSRPPRLPRPRPRPACRPRP | 0.212
107 | RRIRNRPPRLPRPRPRPQPWPRP | -0.00313
108 | RRIRIRPPRLPRPRPRPTQVPRP | 0.00035
109 | RRIRIRPPRLPRPRPRPDIRPRP | -0.00601
110 | RRIRTRPPRLPRPRPRPFILPRP | -0.276
111 | RRIRRRPPRLPRPRPRPGEPPRP | 0.41
112 | RRIRFRPPRLPRPRPRPGNVPRP | 0.0145
113 | RRIRDRPPRLPRPRPRPNLAPRP | -0.0121
114 | RRIRWRPPRLPRPRPRPMSVPRP | 0.0691
115 | RRIRARPPRLPRPRPRPKLHPRP | 0.366
116 | RRIRRRPPRLPRPRPRPEALPRP | 0.115
117 | RRIRHRPPRLPRPRPRPDWMPRP | -0.222
118 | RRIRPRPPRLPRPRPRPDKHPRP | -0.376
119 | RRIRWRPPRLPRPRPRPKNLPRP | 0.0793
120 | RRIRNRPPRLPRPRPRPICFPRP | -0.217
121 | RRIRLRPPRLPRPRPRPLRVPRP | 0.4
122 | RRIRPRPPRLPRPRPRPRENPRP | 0.672
123 | RRIRLRPPRLPRPRPRPSEIPRP | -0.397
124 | RRIRVRPPRLPRPRPRPAADPRP | 0.437
125 | RRIRPRPPRLPRPRPRPQGQPRP | 0.0372
